Drawing on the supplement of paper PMC10126150, this text covers switch fluorescence ratio for 120 sequences.

± gives the standard deviation of the averaged measurements.

The series relates to ATP. Kind of series: switch fluorescence ratio, 500 uM ATP over buffer (Cy3 cluster intensity, sum of 5 cycles each) (fold (ratio)); higher = stronger signal-on switching upon ATP binding; sequences stand for … in TCGTCGGCAGCGTCAGATGTGTATAAGAGACAGTTTTTTTTTTTTTTTTTTTTTTTTT…TC. Particulars: aptamer strand: ATP DNA aptamer (quencher-CACCTGGGGGAGTATTGCGGAGGAAGG + anchor), 100 nM annealed; ATP concentration: 500 uM. The method in brief: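 Five buffer/ATP imaging cycles were run on Cy3-labelled switching-strand clusters on a modified Illumina MiSeq flow-cell, with NaOH stripping and re-annealing between cycles. In each cycle, clusters annealed to 100 nM quencher-labelled ATP aptamer were imaged in selection buffer, then after 15 min with 500 uM ATP at 22 °C. Per cluster, the fluorescence ratio is summed target-cycle over summed buffer-cycle Cy3 intensity, averaged per switch-domain sequence. Only clusters within 100-1000 RFU were kept.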
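Also: ATP exposure 15 min at 22 °C before imaging.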

Turning to AAGGTAGGCC, the switch fluorescence ratio is 0.96 ± 0.016.
In the case of ACTGTGTGGC it was 0.992 ± 0.012; in that of ATTGTAGGAG, 0.9966 ± 0.0058.
As for GTTGTATTTT, the switch fluorescence ratio stood at 0.989 ± 0.022.
Regarding GATGGCCGTG, the switch fluorescence ratio turned out to be 0.978 ± 0.018.
Next, GAGTACGAGT: 1.0098 ± 0.001.
As for CGATCCTTTT, the switch fluorescence ratio was 1.05 ± 0.029.
In the case of TTAAGGTAAA, the switch fluorescence ratio is 1.01 ± 0.049.
Next, ATTTTTGGG: 1.03 ± 0.035; CGGTTATGGT: 0.99 ± 0.022; TGAAAGGGAA: 0.9898 ± 0.0074.
In the case of CTGGGGTTGT it was 1.02 ± 0.012.
Next, ATAAAGCGAT: 1.06 ± 0.023; AAGTTTTTCC: 1.04 ± 0.021; AATGGGGGGC: 1 ± 0.041.
For AGCCGAAAGG, the switch fluorescence ratio turned out to be 1.024 ± 0.0025.
In the case of AAGGATAATG it was 0.976 ± 0.019; in that of TTACGTTTC, 1 ± 0.034.
Next, TAAATGGGTT: 1 ± 0.027; GCGAGGGGCG: 1 ± 0.062.
In the case of TTCGATTGTT it was 0.952 ± 0.018.
Regarding TTTAGTAGCT, the switch fluorescence ratio amounted to 1 ± 0.032.
In the case of AGAATTATAT it was 0.973 ± 0.023; in that of TTTATGTCTC, 0.992 ± 0.029; in that of CCTTTTTTTG, 1.01 ± 0.024.
In the case of TGGCGTTTTG it was 0.9687 ± 0.0069; in that of AATGAACGTT, 1.03 ± 0.078.
In the case of GCGAAAACGC it was 1.04 ± 0.039; in that of CGCCGGGTGC, 2.75 ± 0.43; in that of CGTGGGTTCC, 0.989 ± 0.038.
Turning to TTAGGGCTAG, the switch fluorescence ratio turned out to be 0.9932 ± 0.0081.
In the case of AATGTAGGGG it was 1.02 ± 0.045; in that of ACGTGCAATT, 1.37 ± 0.21; in that of TTTGTTGATA, 0.983 ± 0.032.
In the case of TTTAGGGTAA it was 1 ± 0.03; in that of CGACTAAAAG, 0.999 ± 0.042.
Take TATATCGGGG: the switch fluorescence ratio was 0.992 ± 0.03.
In the case of GCCGCGGGAG it was 1.096 ± 0.0063; in that of GGGGTTCGTG, 0.975 ± 0.041; in that of TTGTTGTCGG, 0.956 ± 0.013.
Next, AGAAGGCTAG: 1.02 ± 0.05.
Next, TGAGGCTATG: 1 ± 0.021; ATTGTCGACT: 0.9681 ± 0.0045.
Consider GCGGTATGCT, for which the switch fluorescence ratio turned out to be 0.9517 ± 0.0058.
Next, TAGTAGGAGT: 1.02 ± 0.035; TTACCCCGAA: 1.026 ± 0.0067; TAAAAGCCTT: 1.06 ± 0.043.
As to TAAAGGGAAA, the switch fluorescence ratio was 1.26 ± 0.37.
For the sequence AGGAATATTT, the switch fluorescence ratio was 1.04 ± 0.095.
Regarding GGGGAAGCGC, the switch fluorescence ratio was 1.01 ± 0.068.
In the case of TAACAATCGC it was 1.06 ± 0.038.
In the case of CGTGTTACGG it was 0.994 ± 0.046; in that of TTGTTTCCCG, 1.013 ± 0.0086.
For TACGTCACGA, the switch fluorescence ratio amounted to 1.42 ± 0.19.
Next, AAGTGCGGCG: 1.03 ± 0.029; GGCTGGGGTA: 0.9884 ± 0.0032.
In the case of TGGTGCTTGT it was 1.02 ± 0.024.
Consider GATCTAAAAC, for which the switch fluorescence ratio worked out at 0.9594 ± 0.0053.
In the case of TTTGGCGAAA it was 1.01 ± 0.019.
Next, CGGATCGGAT: 0.976 ± 0.04; CCAATAGAGT: 0.997 ± 0.046; TGGTGGGGAT: 0.985 ± 0.029.
Take TGCATGTGGC: the switch fluorescence ratio was determined as 0.988 ± 0.012.
In the case of GAAATGGAAG it was 1 ± 0.038; in that of AGCAGGAGGA, 1 ± 0.031; in that of TTGGGGGCGA, 1.036 ± 0.0035.
Take TGGTTTAATG: the switch fluorescence ratio was found to be 0.997 ± 0.015.
Next, CAAGGTTGAA: 0.9902 ± 0.0079; CGAGGGTAAG: 1 ± 0.0022; GTTATGGGGC: 0.966 ± 0.043.
In the case of AGGGGGCGGT it was 0.959 ± 0.033.
In the case of ATCATGCGGC it was 0.983 ± 0.014; in that of TAAGTAGGGC, 1.2 ± 0.18.
Turning to AAAGAGAGAA, the switch fluorescence ratio came to 0.9998 ± 0.0093.
In the case of TTTAAAAAGC it was 0.996 ± 0.032; in that of CGTGTTTTAT, 0.998 ± 0.039.
In the case of TTGGTATGTA it was 1 ± 0.018.
Next, TAGGGATGTA: 1.01 ± 0.016.
For the sequence TCGAGTTCTT, the switch fluorescence ratio was 0.999 ± 0.012.
Next, AATTGGCGGT: 1.03 ± 0.027.
In the case of ATTAGACCCT it was 1.038 ± 0.005; in that of AAGTAAGGGG, 0.955 ± 0.054.
Next, TCTTATAGGT: 0.986 ± 0.017.
In the case of AGGAACGCGC, the switch fluorescence ratio was 1.02 ± 0.027.
In the case of TGGGGGCGTT it was 1 ± 0.034; in that of CATTAGGGTC, 0.932 ± 0.019.
Next, TTTCTGTTGC: 0.9887 ± 0.0047; AAGGGCTTCC: 1.98 ± 0.038; GTTTGTAACG: 1.02 ± 0.015.
Next, AGGGGATAGT: 0.9659 ± 0.0091; GGGCCCCTTG: 1.01 ± 0.073; TGCTTCTTTG: 0.979 ± 0.011.
On to CAAGGTGTGT, for which the switch fluorescence ratio was determined as 1.01 ± 0.043.
In the case of TAGCCGGAGG it was 0.986 ± 0.018.
In the case of GGATTATGTC it was 0.975 ± 0.039; in that of CAACCTGCGA, 1.4175 ± 0.0011.
In the case of GCAGGGTGGG it was 1.02 ± 0.028.
ACAACGAAAG: the switch fluorescence ratio worked out at 1.039 ± 0.0061.
Next, TTCTGAATTT: 0.999 ± 0.028; TTGGCCGGGG: 1.01 ± 0.029; GTAGTTACTT: 0.995 ± 0.051.
Next, ACCGGTTGGT: 0.976 ± 0.01.
In the case of CAGTCATGGG it was 1 ± 0.035; in that of GTTCCTGTGG, 1.0156 ± 0.00081.
TCGCAATGTT: the switch fluorescence ratio came to 3.58 ± 1.
With AAGGGGGTCA, the switch fluorescence ratio came to 1.016 ± 0.0063.
On to CTGTTTTGTG, for which the switch fluorescence ratio is 1.01 ± 0.049.
In the case of CATTGGGTGT it was 1.03 ± 0.0098; in that of TTCAATATGC, 1.1 ± 0.033; in that of CTGTCCGTTG, 1.01 ± 0.017.
Next, CAGTTACACG: 0.995 ± 0.023; AGGTGAGGGT: 1.022 ± 0.0047.
Next, AGTCGGTTAA: 1.02 ± 0.046; ATTCGTTTCT: 0.97 ± 0.013.
For TTCCCGGACT, the switch fluorescence ratio amounted to 1.02 ± 0.024.
In the case of ACCGCTATGT it was 1.57 ± 0.019.
Next, TTCGAGCGAT: 1.78 ± 0.98.
Next, ACGGTATTTG: 1.13 ± 0.035.
In the case of CGTCTAAGGT, the switch fluorescence ratio came out at 0.98 ± 0.044.
In the case of TTTGCTGCAG it was 1.003 ± 0.003.
